Results taken from the supplement of paper PMC10567573.

B1: ZNF449 (parent)
chain: CTHCSKSFRQRAGLIMHQVTHFRG
B2: TRIM63 (parent)
chain: QRITQEQEKKLSFIEALIQQYQEQ

Variants of: B1
Experiment: protein stability index of a GFP-peptide fusion (GPS, HEK-293T) (PSI 1-6); higher = more stable
Conditions: c terminus: a fixed tail appended
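Also: lentivirally expressed fusions sorted by FACS into six bins by GFP to DsRed ratio, PSI derived from sequencing read proportions per bin multiplied by bin number.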

Variant	protein stability index
C1D	2.01
C1H	1.96
C1F	1.22
C1R	1.93
C1Q	3.23
C1I	1.74
C1L	2.48
C1V	1.64
C1Y	1.2
C1T	1.5
C1K	2.66
C1S	1.91
C1E	1.77
C1W	3.78
C1M	1.53
C1N	1.72

Variant	protein stability index
C1A	2.17
T2E	2.4
T2L	1.97
T2I	2.7
T2F	1.45
T2G	1.5
T2P	1.82
T2H	1.92
T2R	2.18
T2N	2.29
T2K	2.25
T2M	1.71
T2D	1.86
T2C	2.09
T2Q	2.84

Variants of: B2
Experiment: as above
Conditions: c terminus: a fixed tail appended

Variant	protein stability index
Q22G	2.89
Q22M	1.79
Q22T	2.22
Q22F	2.02
Q22D	1.77
Y21G	3.61
Y21C	1.75
Y21E	2.11
Y21P	4.33
Y21I	1.84
Q7S	2.86
Q7Y	2.12
Q7R	2.29
Q7F	2.02
Q7A	2.16
F13V	3.93
F13R	3.91
F13D	4.83
L17T	3.31
L17G	4.54
L17I	2.28
L17Q	4.03
L17K	3.75

Variant	protein stability index
I18S	2.94
I18L	2.3
I18K	2.42
I18G	3.67
I18W	2.7
I18T	3.31
I18M	2.22
I18H	3.6
A16F	2.57
A16L	1.7
A16S	2.45
A16R	2.63
A16H	2.45
A16D	3.16
K10C	2.04
K10R	2.47
K10Q	1.95
K10G	3.58
K10P	2.77
K10S	2.73
K10D	3.67
K10A	2.1
K9W	3.8

Variant	protein stability index
K9T	2.41
K9R	2.74
K9Q	2.82
K9D	2.77
K9F	2.78
S12P	3.91
S12T	3.23
S12M	1.86
S12D	2.86
S12V	1.81
Q20G	3.11
Q20C	2.23
Q20W	2.01
Q20P	3.43
Q20I	1.67
Q20T	2.67
Q24E	2.14
Q24Y	1.66
Q24F	1.97
Q24R	2.06
Q24S	1.98
Q24N	2.25
Q1E	3.15

Variant	protein stability index
Q1L	2.57
Q1I	2.75
Q1D	2.32
Q1N	2.31
Q1V	1.79
Q1A	2.3
L11M	1.82
L11R	2.24
L11I	2.64
L11S	2.63
L11Q	3.08
L11V	1.95
L11Y	2.79
L11P	2.78
E15N	2.04
E15R	2.16
E15Q	2.23
E15T	2.32
T4E	3.19
T4G	2.73
T4V	2.87
T4N	2.59
T4D	3.22

Variant	protein stability index
T4A	3.01
T4K	2.8
R2K	2.26
R2S	2.45
R2M	2.48
R2T	2.42
R2G	2.35
R2I	1.89
E6V	1.81
E6L	1.8
E6I	1.62
E6P	1.97
E6M	2.27
E6N	1.73
Q5S	2.17
Q5C	2.39
Q5Y	2.27
Q5T	2.58
Q5V	1.94
Q5N	2.32
I3H	2.54
I3T	2.39
I3K	2.37

Variant	protein stability index
I3W	2.44
I3S	2.59
I3E	2.45
I3L	2.5
E8I	1.9
E8G	1.87
E8R	1.56
E23V	2.34
E23L	2.65
E23D	2.62
I14D	4.69
I14H	3.2
I14C	2.02
I14E	2.77
I14S	3.48
Q19T	2.75
Q19F	1.91
Q19E	2.56
Q19V	1.81
Q19D	2.46
Q19H	2.04
